Data taken from FireProtDB (doi:10.1016/s0014-5793(98)01666-4).

B1: Parvalbumin alpha, P02625 (parent)
chain: MSMTDLLSAEDIKKAIGAFTAADSFDHKKFFQMVGLKKKSADDVKKVFHILDKDKSGFIEEDELGSILKGFSSDARDLSAKETKTLMAAGDKDGDGKIGVEEFSTLVAES

Variants of: B1
Conditions: Rattus norvegicus; pH 7.4; Thermal; DSC; EDTA 10 mM; NaCl 0.20 M; transition: 2; reversible: yes; structure 1RTP; whole UniProt chain shown
With E109S the Tm was 41.8 °C, the “unfolding enthalpy (calorimetric)” value was 62 kcal/mol and the “unfolding enthalpy (van 't Hoff)” value was 63 kcal/mol.
